From patent US20200199241A1 (Chugai, published 2020)

B1: IL6R-BF648/IL6R-L (antibody, human IgG1)
heavy: not shown
light: DIQMTQSPSSLSASVGDRVTITCRASQDISSYLNWYQQKPGKAPKLLIYYTSRLHSGVPSRFSGSGSGTDFTFTISSLQPEDIATYYCQQGNTLPYTFGQGTKVEIK
B2: IL6R-BP086/IL6R-L (antibody, human IgG1)
heavy: QVQLQESGPGLVKPSETLSLTCAVSGHSISHDHAWSWVRQPPGEGLEWIGFISYSGITNYNPSLQGRVTISRDNSKNTLYLQMNSLRAEDTAVYYCARSLARTTAMDYWGEGTLVTVSSASTKGPSVFPLAPSSKSTSGGTAALGCLVKDYFPEPVTVSWNSGALTSGVHTFPAVLQSSGLYSLSSVVTVPSSSLGTQTYICNVNHKPSNTKVDKKVEPKSCDKTHTCPPCPAPELLGGDSVFLFPPKPKDTLMISRTPEVTCVVVDVSHEDPEVKFNWYVDGVEVHNAKTKPREEQYNSTYRVVSVLTVLHQDWLNGKEYKCKVSNAALPKPIEKTISKAKGQPREPQVYTLPPSRDELTKNQVSLTCLVKGFYPSDIAVEWESNGQPENNYKTTPPVLDSDGSFFLYSKLTVDKSRWQQGNVFSCSVMHEALHNHYTQESLSLSP
light: DIQMTQSPSSLSASVGDRVTITCRASQDISSYLNWYQQKPGKAPKLLIYYTSRLHSGVPSRFSGSGSGTDFTFTISSLQPEDIATYYCQQGNTLPYTFGQGTKVEIK
B3: IL6R-BP087/IL6R-L (antibody, human IgG1)
heavy: QVQLQESGPGLVKPSETLSLTCAVSGHSISHDHAWSWVRQPPGEGLEWIGFISYSGITNYNPSLQGRVTISRDNSKNTLYLQMNSLRAEDTAVYYCARSLARTTAMDYWGEGTLVTVSSASTKGPSVFPLAPSSKSTSGGTAALGCLVKDYFPEPVTVSWNSGALTSGVHTFPAVLQSSGLYSLSSVVTVPSSSLGTQTYICNVNHKPSNTKVDKKVEPKSCDKTHTCPPCPAPEYLGGDSVFLFPPKPKDTLMISRTPEVTCVVVDVSHEDPEVKFNWYVDGVEVHNAKTKPREEQYNSTYRVVSVLTVLHQDWLNGKEYKCKVSNKALPKPIEKTISKAKGQPREPQVYTLPPSRDELTKNQVSLTCLVKGFYPSDIAVEWESNGQPENNYKTTPPVLDSDGSFFLYSKLTVDKSRWQQGNVFSCSVMHEALHNHYTQESLSLSP
light: DIQMTQSPSSLSASVGDRVTITCRASQDISSYLNWYQQKPGKAPKLLIYYTSRLHSGVPSRFSGSGSGTDFTFTISSLQPEDIATYYCQQGNTLPYTFGQGTKVEIK
B4: IL6R-BP130/IL6R-L (antibody, human IgG1)
heavy: QVQLQESGPGLVKPSETLSLTCAVSGHSISHDHAWSWVRQPPGEGLEWIGFISYSGITNYNPSLQGRVTISRDNSKNTLYLQMNSLRAEDTAVYYCARSLARTTAMDYWGEGTLVTVSSASTKGPSVFPLAPSSKSTSGGTAALGCLVKDYFPEPVTVSWNSGALTSGVHTFPAVLQSSGLYSLSSVVTVPSSSLGTQTYICNVNHKPSNTKVDKKVEPKSCDKTHTCPPCPAPDLLGGDSVFLFPPKPKDTLMISRTPEVTCVVVDVSHEDPEVKFNWYVDGVEVHNAKTKPREEQYNSTYRVVSVLTVLHQDWLNGKEYKCKMSNKALPKPIEKTISKAKGQPREPQVYTLPPSRDELTKNQVSLTCLVKGFYPSDIAVEWESNGQPENNYKTTPPVLDSDGSFFLYSKLTVDKSRWQQGNVFSCSVMHEALHNHYTQESLSLSP
light: DIQMTQSPSSLSASVGDRVTITCRASQDISSYLNWYQQKPGKAPKLLIYYTSRLHSGVPSRFSGSGSGTDFTFTISSLQPEDIATYYCQQGNTLPYTFGQGTKVEIK
B5: IL6R-BP152/IL6R-L (antibody, human IgG1)
heavy: QVQLQESGPGLVKPSETLSLTCAVSGHSISHDHAWSWVRQPPGEGLEWIGFISYSGITNYNPSLQGRVTISRDNSKNTLYLQMNSLRAEDTAVYYCARSLARTTAMDYWGEGTLVTVSSASTKGPSVFPLAPSSKSTSGGTAALGCLVKDYFPEPVTVSWNSGALTSGVHTFPAVLQSSGLYSLSSVVTVPSSSLGTQTYICNVNHKPSNTKVDKKVEPKSCDKTHTCPPCPAPDYLGDDSVFLFPPKPKDTLMISRTPEVTCVVVDVSHEDPEVKFNWYVDGVEVHNAKTKPREEQDNSTYRVVSVLTVLHQDWLNGKEYKCKVSNAALPRPIEKTISKAKGQPREPQVYTLPPSRDELTKNQVSLTCLVKGFYPSDIAVEWESNGQPENNYKTTPPVLDSDGSFFLYSKLTVDKSRWQQGNVFSCSVMHEALHNHYTQESLSLSP
light: DIQMTQSPSSLSASVGDRVTITCRASQDISSYLNWYQQKPGKAPKLLIYYTSRLHSGVPSRFSGSGSGTDFTFTISSLQPEDIATYYCQQGNTLPYTFGQGTKVEIK
B6: IL6R-BP178/IL6R-L (antibody, human IgG1)
heavy: QVQLQESGPGLVKPSETLSLTCAVSGHSISHDHAWSWVRQPPGEGLEWIGFISYSGITNYNPSLQGRVTISRDNSKNTLYLQMNSLRAEDTAVYYCARSLARTTAMDYWGEGTLVTVSSASTKGPSVFPLAPSSKSTSGGTAALGCLVKDYFPEPVTVSWNSGALTSGVHTFPAVLQSSGLYSLSSVVTVPSSSLGTQTYICNVNHKPSNTKVDKKVEPKSCDKTHTCPPCPAPDLLGDDSVFLFPPKPKDTLMISRTPEVTCVVVDVSHEDGEVKFNWYVDGVEVHNAKTKPREEQYNSTYRVVSVLTVLHQDWLNGKEYKCKVSNKALPKPIEKTISKAKGQPREPQVYTLPPSRDELTKNQVSLTCLVKGFYPSDIAVEWESNGQPENNYKTTPPVLDSDGSFFLYSKLTVDKSRWQQGNVFSCSVMHEALHNHYTQESLSLSP
light: DIQMTQSPSSLSASVGDRVTITCRASQDISSYLNWYQQKPGKAPKLLIYYTSRLHSGVPSRFSGSGSGTDFTFTISSLQPEDIATYYCQQGNTLPYTFGQGTKVEIK
B7: IL6R-BP180/IL6R-L (antibody, human IgG1)
heavy: QVQLQESGPGLVKPSETLSLTCAVSGHSISHDHAWSWVRQPPGEGLEWIGFISYSGITNYNPSLQGRVTISRDNSKNTLYLQMNSLRAEDTAVYYCARSLARTTAMDYWGEGTLVTVSSASTKGPSVFPLAPSSKSTSGGTAALGCLVKDYFPEPVTVSWNSGALTSGVHTFPAVLQSSGLYSLSSVVTVPSSSLGTQTYICNVNHKPSNTKVDKKVEPKSCDKTHTCPPCPAPELLGDDSVFLFPPKPKDTLMISRTPEVTCVVVDVSHEDGEVKFNWYVDGVEVHNAKTKPREEQYNSTYRVVSVLTVLHQDWLNGKEYKCKVSNKALPKPIEKTISKAKGQPREPQVYTLPPSRDELTKNQVSLTCLVKGFYPSDIAVEWESNGQPENNYKTTPPVLDSDGSFFLYSKLTVDKSRWQQGNVFSCSVMHEALHNHYTQESLSLSP
light: DIQMTQSPSSLSASVGDRVTITCRASQDISSYLNWYQQKPGKAPKLLIYYTSRLHSGVPSRFSGSGSGTDFTFTISSLQPEDIATYYCQQGNTLPYTFGQGTKVEIK

Legend:
FcγRIIb [1] = target: T1, FcγRIIb (human, UniProt P31994 43-217, limits assumed); test: ratio of SPR KDs: KD for FcγRIIaH over KD for FcγRIIb
T1 construct: SPR analyte; also called FcγIIB; CD32
T1 sequence: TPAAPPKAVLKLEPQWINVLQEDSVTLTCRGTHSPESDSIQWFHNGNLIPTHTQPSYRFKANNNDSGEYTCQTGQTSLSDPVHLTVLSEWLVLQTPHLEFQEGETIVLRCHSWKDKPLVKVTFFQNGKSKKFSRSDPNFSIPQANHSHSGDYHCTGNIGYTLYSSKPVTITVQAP
From the text: (§1) Furthermore, KD(IIaR)/KD(IIb) and KD(IIaH)/KD(IIb) in the table respectively represent the value obtained by dividing the KD value of each variant for FcγRIIaR by the KD value of each variant for FcγRIIb, and the value obtained by dividing the KD value of each variant for FcγRIIaH by the KD value of each variant for FcγRIIb.

FcγRIIb [2] = target: T1, FcγRIIb; test: ratio of SPR KDs: KD for FcγRIIaR over KD for FcγRIIb
From the text: as §1

FcγRIa = target: T2, FcγRIa (human, UniProt P12314 16-292, limits assumed); test: SPR (Biacore), antibody captured, FcγR analyte
T2 construct: SPR analyte; also called CD64
From the text: (§2) Furthermore, KD(IIaR)/KD(IIb) and KD(IIaH)/KD(IIb) in the table respectively represent the value obtained by dividing the KD value of each variant for FcγRIIaR by the KD value of each variant for FcγRIIb, and the value obtained by dividing the KD value of each variant for FcγRIIaH by the KD value of each variant for FcγRIIb. KD(IIb) of the parent polypeptide/KD(IIb) of the altered polypeptide refers to the value obtained by dividing the KD value of the parent polypeptide for FcγRIIb by the KD value of each variant for FcγRIIb.

FcγRIIb [3] = target: T1, FcγRIIb; test: SPR (Biacore), antibody captured, FcγR analyte
From the text: as §2

FcγRIIa type R [4] = target: T3, FcγRIIa type R (human, UniProt P12318 36-217); test: SPR (Biacore), antibody captured, FcγR analyte
T3 construct: SPR analyte; also called FcγRIIaR; FcγRIIa(R)
T3 chain: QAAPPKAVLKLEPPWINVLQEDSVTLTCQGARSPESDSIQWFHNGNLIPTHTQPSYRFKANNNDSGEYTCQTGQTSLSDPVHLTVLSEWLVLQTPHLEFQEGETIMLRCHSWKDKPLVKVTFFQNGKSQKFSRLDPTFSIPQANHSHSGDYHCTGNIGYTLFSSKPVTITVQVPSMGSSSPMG
From the text: as §2

FcγRIIIa type V = target: T4, FcγRIIIa type V (human, UniProt P08637 17-208, limits assumed); test: SPR (Biacore), antibody captured, FcγR analyte
T4 construct: SPR analyte; allotype V158 was used here; also called FcγRIIIaV; FcγRIIIa(V)
From the text: as §2

FcγRIIa type H = target: T5, FcγRIIa type H (human, UniProt P12318 36-217); test: SPR (Biacore), antibody captured, FcγR analyte
T5 construct: SPR analyte; also called FcγRIIaH
T5 sequence: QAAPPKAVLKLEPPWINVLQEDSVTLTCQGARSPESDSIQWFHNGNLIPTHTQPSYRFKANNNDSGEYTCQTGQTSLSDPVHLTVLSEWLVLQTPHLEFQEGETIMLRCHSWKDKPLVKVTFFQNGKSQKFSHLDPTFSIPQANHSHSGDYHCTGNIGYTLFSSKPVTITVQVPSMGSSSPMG
From the text: as §2

FcγRIIb [5] = target: T1, FcγRIIb; test: ratio of SPR KDs; reference IL6R-B3/IL6R-L
FcγRIIa type R [6] = target: T3, FcγRIIa type R; test: ratio of SPR KDs; stronger receptor here FcγRIIaR; reference IL6R-B3/IL6R-L (FcγRIIaH)
From the text: as §2

T2 sequence (P12314 16-292 limits assumed): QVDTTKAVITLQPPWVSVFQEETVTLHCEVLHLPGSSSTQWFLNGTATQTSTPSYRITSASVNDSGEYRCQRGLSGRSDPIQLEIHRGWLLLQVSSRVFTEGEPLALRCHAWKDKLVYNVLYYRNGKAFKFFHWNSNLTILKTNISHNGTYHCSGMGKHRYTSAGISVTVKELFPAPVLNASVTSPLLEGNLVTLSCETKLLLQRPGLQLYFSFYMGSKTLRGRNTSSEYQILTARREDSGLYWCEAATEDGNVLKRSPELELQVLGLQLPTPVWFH
T4 sequence (P08637 other isoform, or with tags, fused parts or gaps limits assumed): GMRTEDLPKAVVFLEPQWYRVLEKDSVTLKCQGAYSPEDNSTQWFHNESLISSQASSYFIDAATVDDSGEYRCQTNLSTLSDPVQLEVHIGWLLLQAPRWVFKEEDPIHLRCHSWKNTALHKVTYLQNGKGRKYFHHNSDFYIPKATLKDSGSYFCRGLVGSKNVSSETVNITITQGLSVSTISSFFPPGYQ

Binder | KD(IIaH)/KD(IIb) (FcγRIIb [1]) | KD(IIaR)/KD(IIb) (FcγRIIb [2]) | Kd (FcγRIa) | Kd (FcγRIIb [3]) | Kd (FcγRIIa type R [4]) | Kd (FcγRIIIa type V) | Kd (FcγRIIa type H) | KD(IIb) of the parent polypeptide/KD(IIb) of altered polypeptide (FcγRIIb [5]) | KD of the stronger of FcγRIIaR/FcγRIIaH binding of the variant / that of the parent polypeptide (FcγRIIa type R [6])
B1 | 33.9 | 13 | 0.011 µM | 1.2 µM | 15 µM | 71 µM | 40 µM | 2.5 | 19.9
B2 | 59.9 | 17.1 | 0.027 µM | 0.57 µM | 9.7 µM | 57 µM | 34 µM | 5.4 | 12.6
B3 | 34.7 | 16 | 0.038 µM | 0.61 µM | 9.7 µM | 44 µM | 21 µM | 5.1 | 12.6
B4 | 85.5 | 17.5 | 0.0018 µM | 0.3 µM | 5.3 µM | 71 µM | 26 µM | 10.2 | 6.9
B5 | – | – | 0.073 µM | 0.041 µM | 0.81 µM | – | 5.6 µM | 75 | 1
B6 | – | – | 0.043 µM | 0.051 µM | 0.93 µM | – | 14 µM | 60.1 | 1.2
B7 | 191 | 18.6 | – | 0.062 µM | 1.2 µM | 70 µM | 18 µM | 49.9 | 1.5
